For 22 molecules, binding result and Kd results are on record in patent publication US20260258115A1 (MAPP BIOPHARMACEUTICAL, published 2026).

B1: ADI-19455 (antibody, V domains shown)
VH: EVQLVESGGGLVKPGGSLRLSCAASGFTFSSYSMNWVRQAPGKGLEWVSSISSSSSYIYYADSVKGRFTISRDNAKNSLYLQMNSLRAEDTAVYYCARSQSGSYYSSDYWGQGTLVTVSS
VL: QSVLTQPPSVSGAPGQRVTISCTGSSSNIGAGYDVHWYQQLPGTAPKLLIYGNSNRPSGVPDRFSGSKSGTSASLAITGLQAEDEADYYCQSYDSSLSGWVFGGGTKVTVL
notes: full-length IgG
B2: ADI-20978 (antibody, V domains shown)
VH: EVQLVESGAEVKKPGASVKVSCKASGYTFGNYGISWVRQAPGQGLEWMGWISAYNGNSNYAQKFQGRVTMTTDTSASTAYMEVRSLRSDDTAVYYCARDVPVTAARLLDYWGQGTLVTVSS
VL: DIVLTQTPLSLPVTLGQPASISCRSSQSLVYSDGNTYLSWFQQRPGQSPRRLIYKVSNRDSGVPDRFSGSGSGTDFTLKISRVEAEDVGVYYCMQATDWLGYTFGQGTKLEIK
B3: ADI-21015 (antibody, V domains shown)
VH: QVQLVQSGAEVKKPGASVRVSCKVPGNTLSDLSMHWVRHTPGEGLEWMGSFDPEYGETIPAQRFQGRVTMTEDTSTDTAYMELTSLRFEDTAVYYCAAPHASGALQHWGQGTLVTVSS
VL: DIVMTQSPSSLSASVGDRVTITCRASQIISAYLNWYQQKAGKAPKLLIYAASSLQSGVPSRFSGSGSGTDFTLTISSLQPEDFATYYCQQTYITPFTFGQGTKLEIK
B4: ADI-14586 (antibody, V domains shown)
VH: QVQLVQSGGGLVKPGGSLRLSCAASGFTFSDYYMSWIRQAPGKGLEWVSYISSSSSYTNYADSVKGRFTISRDNAKNSLYLQMNSLRAEDTAVYYCAKRTEYCSSTGCAYYFDYWGQGTLVTVSS
VL: QSVVTQPPSVSGAPGQRVTISCTGSSSNIGAGYDVHWYQQLPGTAPKLLIYGNSNRPSGVPDRFSGSKSGTSASLAITGLQAEDEADYYCQSYDSSLSGSVFGGGTKVTVL
B5: ADI-21018 (antibody, V domains shown)
VH: EVQLLESGGGLVKPGGSLRLSCAGSGFTLSSYGMNWVRQAPGQGLEWISSISSSSSYINYADSVKGRFTISRDNAQNSLYLQLNSLRAEDTAVYYCARGGLGYDYGLGSYTYADYWGQGTLVTVSS
VL: QSVVTQPPSVSGAPGQRVTISCTGSSSNTGAGYDIHWYQQLPGTGPKLLIYGNKNRPSGVPDRFSGSKSGTSASLAITGLQAEDEADYYCQSYDSSLSGWVFGGGTKVTVL
B6: ADI-14587 (antibody, V domains shown)
VH: EVQLLESGGGLVKPGGSLRLSCAASGFTLTSYSMNWVRQAPGKGLEWVSSISSSSSYIHYADSVKGRFTISRDNAKNSLYLQMNSLRAEDTAVYYCAGSSLYPPFFDYWGQGTLVTVSS
VL: QSVVTQPPSVSGAPGQRVTISCTGSSSNLGAGYDVHWYQQLPGTAPKLLIYGNNNRPSGVPDRFSGSKSGTSASLAITGLQAEDEADYYCQSYDSSLSSVVFGGGTKLTVL
B7: ADI-20980 (antibody, V domains shown)
VH: QVQLQESGPGLVKPSQTLSLTCSVSGGSVSSGDYYWTWIRQPAGKGLEWIGRIYNSGGTDYSPSLKSRVTISVDTSKNQFSLKLSSVTAADTAVYYCARGRGYYESPWGQGTLVTVSS
VL: EIVLTQSPATLSLSPGERATLSCRASQSVGIYIGWYQQKPGQAPRLLMYDASNRATGIPDRFSGSGSGTDFSLTISSLEPEDFAVYYCQLRSKWLTFGPGTKVEIK
B8: ADI-14588 (antibody, V domains shown)
VH: QVQLVQSGAEVKKPGASVKVSCKVSGDTLTELSIHWVRQAPGKGHEWMGYFDHEDGEIMYAQKFQGRVTMTGDTSTDTAYMELSSLRSEDTAVYYCATVAAAGQFDYWGQGTLVTVSS
VL: DIQLTQSPSSLSASVGDRVTITCRARQSISTYLNWYQQKPGKAPKLLIYAASSLQSGVPSRFSGSGSGTDFTLTISSLQPEDFATYYCQQSYSSPYTFGQGTKVDIK
B9: ADI-21005 (antibody, V domains shown)
VH: EVQLVESGGAVVQPGGSLRLSCVASGLAFDEYTMHWVRQSSAKGLEWISLISWNGGITYYADSVKGRFTISRDNSKNSLYLQMNSLRTEDTATYFCARLGYGSGSDYGDDYWGQGTLVTVSS
VL: ETTLTQSPGTLSLSPGERATLSCRASQSVSNNYLAWYQQKPGQAPRLLIHGASTRVTGIPARFSGSGSGTDFTLTISRLEPEDFAVYYCHQYHSSPRTFGQGTKVDIK
B10: ADI-20966 (antibody, V domains shown)
VH: EVQLLESGGGLGKPGGSLRLSCAASGFKLSSYYMHWVRQAPGKGPEWVSSISASSSYINYADSVRGRFTVSRDNAKNSLFLQMNSLRVDDTAIYYCARGAPLTNFGMVLDSWGQGTLVTVSS
VL: QSVLTQPPSVSGAPGQRVTISCTGSGSNIGAGYDVHWYQQVPGRVPKLLIYANNNRPSGVPDRFSGSKSGTSASLAITGLQADDEADYYCQSYDRSLNVVFGGGTKLTVL
B11: ADI-14603 (antibody, V domains shown)
VH: QVQLVQSGAEVKKPGESLKISCKGSGYTFTNYWIGWVRQMPGKGLEWMGIIYPGDSDTRYSPSFQGQVTISADKSITTAYLQWRVLKASDTAMYYCATMRGSSSHFHHWGQGTLVTVSS
VL: DIQVTQSPSSLSASVGDRVTITCRAGQGIGNYLAWYQQKPGKVPKVLIYAASTLQSGVPSRFSGSGSGTEFTLTISSLQPEDVATYYCQKYNNAPYAFGQGTRLEIK
notes: also called Ab 131
B12: ADI-20987 (antibody, V domains shown)
VH: QVQLVQSGGGVVHPGRSLRLSCAASGFSFSDYGMHWVRQAPGKGLEWVAVIWYDGINKYYADSVKGRFAISRDNSKNTLYLQMNSLRAGDTAVYYCARGGIAAAQRYFDYWGQGTLVTVSS
VL: ETTLTQSPGTLSLSPGERATLSCRASQTVSSSNLAWYQQKPGQAPRLLIYGASSRATGIPDRFSGSGSGTDFTLTISRLEPEDFAVYYCQQSGTSFGQGTKVDIK
B13: ADI-14583 (antibody, V domains shown)
VH: QVQLVQSGAEVKEPGASVKVSCKASGYTFTNYGISWVRQAPGQGLEWLGWISAYNGNIHYAQKVQGRVTMTTDTSTSTGFMELRSLRSDDTAVYYCAREPPVIAAGDFQHWGQGTLVTVSS
VL: ETTLTQSPLSLPVTLGQPASISCRSSQSLVHSNGNTYLSWFQQRPGQSPRRLIYRVSNRDSGVPDRFSGSGSGTDFTLKISRVEAEDVGLYYCMQGTHWPPDFGQGTRLEIK
B14: ADI-21057 (antibody, V domains shown)
VH: QVQLVQSGAEVKKPGESLKISCKASGYSLSNNWIAWVRQMPGKGLEWMGIVYLGDSDARYSPSFQGQVTFSADKSISTAYLQWSSLQASDTAMYFCARHHGDLVVTSDSRYFYGLDVWGQGTTVTVSS
VL: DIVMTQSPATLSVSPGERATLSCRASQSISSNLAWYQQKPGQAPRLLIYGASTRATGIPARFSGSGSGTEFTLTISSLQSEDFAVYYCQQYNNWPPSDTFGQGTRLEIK
B15: ADI-20998 (antibody, V domains shown)
VH: QVQLVQSGGGVVQPGRSLRLSCAASGFTLSTYGMHWVRQAPGKGLEWVAVIYYDESNKFYADSVQGRFTISRDDSKNTLFLQMNSLRAEDTAVYYCARESRPRGYSYSDFDSWGQGTLVTVSS
VL: QPGLTQPRSVSGSPGQSVTISCTGTSSDVGTFNYVSWYQQHPGKAPKLMIYDVNQRPSGVPDRFSGSKSGNTASLTISGLQAEDEADYYCCAYAGYYSFGGGTKLTVL
B16: ADI-21013 (antibody, V domains shown)
VH: QVQLQESGPGVVKPSETLSLTCTVSGGSISNTHSYWGWIRQSPGKGLEWIGSIYYTGSTYYNPSFRSRVTLSVDTSKNQFSLKLSSVTAADTAVYYCAAPDYFVLTDYKSTFDYWGRGALVTVSS
VL: DIVMTQSPGTLSLSPGGRATLSCRASQSVGSSSLAWYQQKPGQAPRLLIYGASSRAAGIPDRFSGSGSGTDFTLTINRLEPEDFAMYYCQQYGSSPLTFGGGTKVEIK
B17: ADI-20984 (antibody, V domains shown)
VH: EVQLLETGAEVKKPGASVKVSCHVSGYGLTDLSMHWVRQAPGKRLQWMGSFDPQYGETIDTQNFQGRVTMTVDTSTATLYMQLSGLRSEDTAMYYCATPQSTGALDNWGQGTLVTVSS
VL: DIRVTQSPSSLSASVGDRVTITCRASQSISSYLSWYQQKPGKAPRLVIFAASNLQSGVPSRFSGTGSSRFSDSGSWTDFTLTISSLQPEDFAIYYCQQTYITPFTFGQGTKVDIK
B18: ADI-14591 (antibody, V domains shown)
VH: QVQLVQSGAEVKKPGESLRISCTGSGYTFTNYWISWVRQMPGKGLEWMGRIDPTDSYTNYSPSFQGHVTISADKSISTAYLQSSSLKASDTATYYCARHRRLVPAAMSRGYYGMDVWGQGTTVTVSS
VL: EIVMTQSPSSLSASVGDRATITCRASQSISSYLNWYQQKPGKAPKLLIYAASNLQSGAPSRFSGSGSGTDFTLTISSLQPEDFATYFCQQTYSTPYTFGQGTKVEIK
notes: also called Ab 120
B19: ADI-21058 (antibody, V domains shown)
VH: QVQLQESGPGLVKPSETLSLTCTVSGGSISGTTYYWAWIRQPPGKGLEWIGTIFYSGSTYYNPSLQSRVTTSVDASKNQMSLRLSSVTAADTAMYYCARHTSIYDNLTGFYSHLTGVLDMWGQGTMVTVSS
VL: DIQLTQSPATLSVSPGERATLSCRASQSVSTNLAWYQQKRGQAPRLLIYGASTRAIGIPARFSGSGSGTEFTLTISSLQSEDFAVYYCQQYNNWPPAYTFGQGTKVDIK
B20: ADI-14601 (antibody, V domains shown)
VH: EVQLLESGGGLVQPGGSLRLSCAASGFTFSSYAMNWVRQAPGKGLEWVSTISGSGSSTYYADSVEGRFTISRDNSKNTLYLQMNSLRAEDTAIYYCAKEPRDMYIQQWLDSWGQGTLVTVSS
VL: GIRLTQSPSSVSASVGDRVIITCRASQGIRSWLAWYQQKPGKAPKLLIYAASRLQSGVPSRFSGSGSETDFTLTISSLQPEDFASYYCQQANSFPLTFGGGTKVEIK
B21: ADI-21028 (antibody, V domains shown)
VH: EVQLVESGGALVKPGGSLRLSCVASGFTFSDYYMHWVRQAPGKGLEWVSYISSTSSFTNYADSVKGRFIISRDNAKNSLYLQLNSLRAEDTAVYYCARDESSGWQTRRHFGMDVWGQGTLVTVSS
VL: EIVMTQSPSTLSASVGDRVTITCRASQSLNTWLAWYQHKPGKAPKLLISTASSLQSGVPSRFSASGSGTEFTLTISSLQPDDFATYYCQQFRGTFGPGTKVEIK
B22: ADI-21049 (antibody, V domains shown)
VH: EVQLVESGGGLVKPGGSLRLSCSASGFAFSSYSMNWVRQAPGKGLEWVSSISASSSYIFYADSVKGRFTISRDNAKNSLYLQMNSLRAEDTAFYYCARALSPGYGDYRDYWGQGTLVTVSS
VL: QSVVTQPPSVSGAPGQRVTISCTGSSSNIGAGYDVHWYQQLPGAAPKLLIYGNNNRPSGVPDRFSGSKSGTSASLAITGLQAEDEADFYCQSYDHNLSVVFGGGTKLTVL

In one assay the target is T1, RSV postfusion F (postF), subtype A (respiratory syncytial virus subtype A, UniProt P03420 26-513).
T1 construct: also called Postfusion subtype A; F deltaFP
Kind of assay: BLI. (Biolayer interferometry detects binding as a change in optical thickness at a sensor tip.)
Consider B1, for which the binding result is reported as “no binding”.

The target of a further assay is RSV prefusion F (preF), subtype B (respiratory syncytial virus, subtype B). The assay can be described thus: BLI, IgG.
With B2, the Kd stood at 0.319 nM.

Molecule B3 showed a Kd of 32.4 nM.

With B4, the Kd is 6.7 nM.

The molecule B5 showed a Kd of 0.366 nM.

Turning to B6, binding was characterised by a dissociation constant (Kd) of 0.833 nM.

The molecule B7 showed a Kd of 0.542 nM.

Molecule B8 came in with a Kd of 1.48 nM.

The molecule B9 showed a Kd of 7.7 nM.

B10 returned a Kd of 0.862 nM.

The molecule B11 registered a Kd of 30.5 nM.

For B12, the Kd worked out at 35.6 nM.

B13 displayed a Kd of 1.59 nM.

The molecule B14 had a Kd of 0.86 nM.

As for B15, binding was characterised by a dissociation constant (Kd) of 1.35 nM.

For B16, the Kd is 1.79 nM.

In turn, B17 came in with a Kd of 20.2 nM.

The molecule B18 yielded a Kd of 0.554 nM.

B19 gave a Kd of 0.515 nM.

B20: binding was characterised by a dissociation constant (Kd) of 1.96 nM.

B21 yielded a Kd of 3.33 nM.

B22 had a Kd of 1.27 nM.

As a reminder, the Kd is the constant that tells how readily two partners part at equilibrium. A lower Kd goes with higher affinity.
